Patent US20160324977A1
Where no end group is shown, it is not given here.

Target: purified human fibrinogen (human) (UniProt P02671)
Experiment: cell-based or functional assay

Chain of purified human fibrinogen (human) (P02671 20-629 limits assumed, chain 1 of 3): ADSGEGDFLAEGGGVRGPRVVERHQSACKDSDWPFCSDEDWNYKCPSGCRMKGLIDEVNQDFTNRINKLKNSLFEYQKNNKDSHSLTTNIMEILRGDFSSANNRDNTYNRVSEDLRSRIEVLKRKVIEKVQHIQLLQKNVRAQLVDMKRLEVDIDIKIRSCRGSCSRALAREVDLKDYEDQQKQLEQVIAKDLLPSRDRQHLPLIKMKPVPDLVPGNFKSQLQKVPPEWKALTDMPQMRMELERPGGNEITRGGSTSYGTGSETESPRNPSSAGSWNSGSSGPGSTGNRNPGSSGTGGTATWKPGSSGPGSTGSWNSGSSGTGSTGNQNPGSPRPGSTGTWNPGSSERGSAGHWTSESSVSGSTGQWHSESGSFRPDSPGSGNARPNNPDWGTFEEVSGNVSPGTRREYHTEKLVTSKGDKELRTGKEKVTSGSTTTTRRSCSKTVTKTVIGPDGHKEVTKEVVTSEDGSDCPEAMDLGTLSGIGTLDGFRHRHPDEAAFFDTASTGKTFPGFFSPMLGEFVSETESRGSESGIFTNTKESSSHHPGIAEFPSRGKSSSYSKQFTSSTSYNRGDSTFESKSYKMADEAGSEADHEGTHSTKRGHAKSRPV
Chain of purified human fibrinogen (human) (P02675 31-491 limits assumed, chain 2 of 3, further chain): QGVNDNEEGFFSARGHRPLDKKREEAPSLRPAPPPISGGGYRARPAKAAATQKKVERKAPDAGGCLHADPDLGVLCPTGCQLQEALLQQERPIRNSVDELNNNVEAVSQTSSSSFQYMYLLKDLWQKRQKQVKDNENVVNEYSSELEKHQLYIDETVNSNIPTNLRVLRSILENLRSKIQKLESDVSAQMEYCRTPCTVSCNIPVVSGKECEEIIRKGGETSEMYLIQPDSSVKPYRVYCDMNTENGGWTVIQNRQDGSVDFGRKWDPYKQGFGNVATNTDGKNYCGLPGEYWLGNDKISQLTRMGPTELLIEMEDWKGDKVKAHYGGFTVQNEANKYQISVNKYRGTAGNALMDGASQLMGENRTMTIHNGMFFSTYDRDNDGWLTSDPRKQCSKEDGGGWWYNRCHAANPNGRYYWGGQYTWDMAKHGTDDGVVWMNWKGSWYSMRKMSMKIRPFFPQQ
Chain of purified human fibrinogen (human) (P02679 other isoform, or with tags, fused parts or gaps limits assumed, chain 3 of 3, further chain): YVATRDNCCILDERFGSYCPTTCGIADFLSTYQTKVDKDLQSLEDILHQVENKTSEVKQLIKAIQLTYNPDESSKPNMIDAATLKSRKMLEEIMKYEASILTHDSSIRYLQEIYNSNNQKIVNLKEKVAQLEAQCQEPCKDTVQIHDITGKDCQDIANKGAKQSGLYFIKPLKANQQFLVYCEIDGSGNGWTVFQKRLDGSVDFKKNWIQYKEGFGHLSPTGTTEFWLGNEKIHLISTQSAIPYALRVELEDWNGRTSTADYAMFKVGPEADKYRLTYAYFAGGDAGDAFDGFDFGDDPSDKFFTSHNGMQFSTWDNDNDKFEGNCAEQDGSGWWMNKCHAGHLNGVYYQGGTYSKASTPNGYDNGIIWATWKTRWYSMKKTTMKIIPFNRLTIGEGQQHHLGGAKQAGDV

B1: Peptide dendrimer No. 13 (peptide, part only)
chain 1: GPRPG
chain 2: GHRPY
modifications: not fully specified (C-terminus); also: chimeric four-branch dendrimer: two copies of each chain, C-termini attached to a branched core of undefined make-up
For B1, the Clotting activity (seconds), non-irradiated control was 4.3 s, the Clotting activity (seconds), storage for 2 weeks post irradiation was 9.4 s and the Clotting activity (seconds), storage for 4 weeks post irradiation was 10 s.
